In article PMC10718530:

Assays:
[1] = target: MreB from Geobacillus stearothermophilus (MreB^Gs), wild type, 6-histidine-tagged (Geobacillus stearothermophilus ATCC 7953); test: negative-stain electron microscopy; standard conditions with the lipid monolayer but without ATP
[2] = target: MreB from Geobacillus stearothermophilus (MreB^Gs), wild type, 6-histidine-tagged (Geobacillus stearothermophilus ATCC 7953); test: negative-stain electron microscopy; standard conditions (2 mM ATP, 100 mM KCl, MreB 1.34 µM) without lipids, in solution; untreated or glow-discharged grids
[3] = target: MreB from Geobacillus stearothermophilus (MreB^Gs), wild type, 6-histidine-tagged (Geobacillus stearothermophilus ATCC 7953); test: negative-stain electron microscopy; MreB 1.34 µM (0.27-1.34 µM in the concentration series) under a monolayer of E. coli total lipid extract; 20 mM Tris pH 7, 100 mM KCl, 2 mM ATP, 5 mM Mg2+, 1-2 h at 25-37 °C; untreated carbon grids; 12 fields a grid scored for pairs of protofilaments; 2D averaging of 1554 particles

percent of EM fields with polymers [1]: 4 % of fields
percent of EM fields with polymers [2]: 8 % of fields
critical concentration of polymerization [3]: 0.45 µM
percent of EM fields with polymers [3]: 100 % of fields
Substance: MreB from Geobacillus stearothermophilus (MreB^Gs), wild type, 6-histidine-tagged (natural protein)
